Source: patent US9958461B2, “Detection of protein to protein interactions” (THE GOVERNING COUNCIL OF THE UNIVERSITY OF TORONTO, priority 2013, dated 2018)

B1: Cdh1 (protein, UniProt P12830 155-882, looked up)
Cadherin-1: DWVIPPISCPENEKGPFPKNLVQIKSNKDKEGKVFYSITGQGADTPPVGVFIIERETGWLKVTEPLDRERIATYTLFSHAVSSNGNAVEDPMEILITVTDQNDNKPEFTQEVFKGSVMEGALPGTSVMEVTATDADDDVNTYNAAIAYTILSQDPELPDKNMFTINRNTGVISVVTTGLDRESFPTYTLVVQAADLQGEGLSTTATAVITVTDTNDNPPIFNPTTYKGQVPENEANVVITTLKVTDADAPNTPAWEAVYTILNDDGGQFVVTTNPVNNDGILKTAKGLDFEAKQQYILHVAVTNVVPFEVSLTTSTATVTVDVLDVNEAPIFVPPEKRVEVSEDFGVGQEITSYTAQEPDTFMEQKITYRIWRDTANWLEINPDTGAISTRAELDREDFEHVKNSTYTALIIATDNGSPVATGTGTLLLILSDVNDNAPIPEPRTIFFCERNPKPQVINIIDADLPPNTSPFTAELTHGASANWTIQYNDPTQESIILKPKMALEVGDYKINLKLMDNQNKDQVTTLEVSVCDCEGAAGVCRKAQPVEAGLQIPAILGILGGILALLILILLLLLFLRRRAVVKEPLLPPEDDTRDNVYYYDEEGGGEEDQDFDLSQLHRGLDARPEVTRNDVAPTLMSVPRYLPRPANPDEIGNFIDENLKAADTDPTAPPYDSLLVFDYEGSGSEAASLSSLNSSESDKDQDYDYLNEWGNRFKKLADMYGGGEDD
B2: STAT5A (protein, UniProt P42229 1-794, looked up)
Signal transducer and …: MAGWIQAQQLQGDALRQMQVLYGQHFPIEVRHYLAQWIESQPWDAIDLDNPQDRAQATQLLEGLVQELQKKAEHQVGEDGFLLKIKLGHYATQLQKTYDRCPLELVRCIRHILYNEQRLVREANNCSSPAGILVDAMSQKHLQINQTFEELRLVTQDTENELKKLQQTQEYFIIQYQESLRIQAQFAQLAQLSPQERLSRETALQQKQVSLEAWLQREAQTLQQYRVELAEKHQKTLQLLRKQQTIILDDELIQWKRRQQLAGNGGPPEGSLDVLQSWCEKLAEIIWQNRQQIRRAEHLCQQLPIPGPVEEMLAEVNATITDIISALVTSTFIIEKQPPQVLKTQTKFAATVRLLVGGKLNVHMNPPQVKATIISEQQAKSLLKNENTRNECSGEILNNCCVMEYHQATGTLSAHFRNMSLKRIKRADRRGAESVTEEKFTVLFESQFSVGSNELVFQVKTLSLPVVVIVHGSQDHNATATVLWDNAFAEPGRVPFAVPDKVLWPQLCEALNMKFKAEVQSNRGLTKENLVFLAQKLFNNSSSHLEDYSGLSVSWSQFNRENLPGWNYTFWQWFDGVMEVLKKHHKPHWNDGAILGFVNKQQAHDLLINKPDGTFLLRFSDSEIGGITIAWKFDSPERNLWNLKPFTTRDFSIRSLADRLGDLSYLIYVFPDRPKDEVFSKYYTPVLAKAVDGYVKPQIKQVVPEFVNASADAGGSSATYMDQAPSPAVCPQAPYNMYPQNPDHVLDQDGEFDLDETMDVARHVEELLRRPMDSLDSRLSPPAGLFTSARGSLS
B3: TAB1 (protein, UniProt Q15750 1-504, looked up)
TGF-beta-activated kinase 1 …: MAAQRRSLLQSEQQPSWTDDLPLCHLSGVGSASNRSYSADGKGTESHPPEDSWLKFRSENNCFLYGVFNGYDGNRVTNFVAQRLSAELLLGQLNAEHAEADVRRVLLQAFDVVERSFLESIDDALAEKASLQSQLPEGVPQHQLPPQYQKILERLKTLEREISGGAMAVVAVLLNNKLYVANVGTNRALLCKSTVDGLQVTQLNVDHTTENEDELFRLSQLGLDAGKIKQVGIICGQESTRRIGDYKVKYGYTDIDLLSAAKSKPIIAEPEIHGAQPLDGVTGFLVLMSEGLYKALEAAHGPGQANQEIAAMIDTEFAKQTSLDAVAQAVVDRVKRIHSDTFASGGERARFCPRHEDMTLLVRNFGYPLGEMSQPTPSPAPAAGGRVYPVSVPYSSAQSTSKTSVTLSLVMPSQGQMVNGAHSASTLDEATPTLTNQSPTLTLQSTNTHTQSSSSSSDGGLFRSRPAHSLPPGEDGRVEPYVDFAEFYRLWSVDHGEQSVVTAP
B4: CAMLG (protein, UniProt P49069 1-296, looked up)
Guided entry of tail-anchored …: MESMAVATDGGERPGVPAGSGLSASQRRAELRRRKLLMNSEQRINRIMGFHRPGSGAEEESQTKSKQQDSDKLNSLSVPSVSKRVVLGDSVSTGTTDQQGGVAEVKGTQLGDKLDSFIKPPECSSDVNLELRQRNRGDLTADSVQRGSRHGLEQYLSRFEEAMKLRKQLISEKPSQEDGNTTEEFDSFRIFRLVGCALLALGVRAFVCKYLSIFAPFLTLQLAYMGLYKYFPKSEKKIKTTVLTAALLLSGIPAEVINRSMDTYSKMGEVFTDLCVYFFTFIFCHELLDYWGSEVP
B5: ABL2 (protein, UniProt P42684 2-1182, looked up)
Tyrosine-protein kinase ABL2: GQQVGRVGEAPGLQQPQPRGIRGSSAARPSGRRRDPAGRTTETGFNIFTQHDHFASCVEDGFEGDKTGGSSPEALHRPYGCDVEPQALNEAIRWSSKENLLGATESDPNLFVALYDFVASGDNTLSITKGEKLRVLGYNQNGEWSEVRSKNGQGWVPSNYITPVNSLEKHSWYHGPVSRSAAEYLLSSLINGSFLVRESESSPGQLSISLRYEGRVYHYRINTTADGKVYVTAESRFSTLAELVHHHSTVADGLVTTLHYPAPKCNKPTVYGVSPIHDKWEMERTDITMKHKLGGGQYGEVYVGVWKKYSLTVAVKTLKEDTMEVEEFLKEAAVMKEIKHPNLVQLLGVCTLEPPFYIVTEYMPYGNLLDYLRECNREEVTAVVLLYMATQISSAMEYLEKKNFIHRDLAARNCLVGENHVVKVADFGLSRLMTGDTYTAHAGAKFPIKWTAPESLAYNTFSIKSDVWAFGVLLWEIATYGMSPYPGIDLSQVYDLLEKGYRMEQPEGCPPKVYELMRACWKWSPADRPSFAETHQAFETMFHDSSISEEVAEELGRAASSSSVVPYLPRLPILPSKTRTLKKQVENKENIEGAQDATENSASSLAPGFIRGAQASSGSPALPRKQRDKSPSSLLEDAKETCFTRDRKGGFFSSFMKKRNAPTPPKRSSSFREMENQPHKKYELTGNFSSVASLQHADGFSFTPAQQEANLVPPKCYGGSFAQRNLCNDDGGGGGGSGTAGGGWSGITGFFTPRLIKKTLGLRAGKPTASDDTSKPFPRSNSTSSMSSGLPEQDRMAMTLPRNCQRSKLQLERTVSTSSQPEENVDRANDMLPKKSEESAAPSRERPKAKLLPRGATALPLRTPSGDLAITEKDPPGVGVAGVAAAPKGKEKNGGARLGMAGVPEDGEQPGWPSPAKAAPVLPTTHNHKVPVLISPTLKHTPADVQLIGTDSQGNKFKLLSEHQVTSSGDKDRPRRVKPKCAPPPPPVMRLLQHPSICSDPTEEPTALTAGQSTSETQEGGKKAALGAVPISGKAGRPVMPPPQVPLPTSSISPAKMANGTAGTKVALRKTKQAAEKISADKISKEALLECADLLSSALTEPVPNSQLVDTGHQLLDYCSGYVDCIPQTRNKFAFREAVSKLELSLQELQVSSAAAGVPGTNPVLNNLLSCVQEISDVVQR
B6: ZAP70 (protein, UniProt P43403 1-619, looked up)
Tyrosine-protein kinase ZAP-70: MPDPAAHLPFFYGSISRAEAEEHLKLAGMADGLFLLRQCLRSLGGYVLSLVHDVRFHHFPIERQLNGTYAIAGGKAHCGPAELCEFYSRDPDGLPCNLRKPCNRPSGLEPQPGVFDCLRDAMVRDYVRQTWKLEGEALEQAIISQAPQVEKLIATTAHERMPWYHSSLTREEAERKLYSGAQTDGKFLLRPRKEQGTYALSLIYGKTVYHYLISQDKAGKYCIPEGTKFDTLWQLVEYLKLKADGLIYCLKEACPNSSASNASGAAAPTLPAHPSTLTHPQRRIDTLNSDGYTPEPARITSPDKPRPMPMDTSVYESPYSDPEELKDKKLFLKRDNLLIADIELGCGNFGSVRQGVYRMRKKQIDVAIKVLKQGTEKADTEEMMREAQIMHQLDNPYIVRLIGVCQAEALMLVMEMAGGGPLHKFLVGKREEIPVSNVAELLHQVSMGMKYLEEKNFVHRDLAARNVLLVNRHYAKISDFGLSKALGADDSYYTARSAGKWPLKWYAPECINFRKFSSRSDVWSYGVTMWEALSYGQKPYKKMKGPEVMAFIEQGKRMECPPECPPELYALMSDCWIYKWEDRPDFLTVEQRMRACYYSLASKVEGPPGSTQKAEAACA
B7: APBB2 (protein, UniProt Q92870 1-758, looked up)
Amyloid beta precursor …: MSEVLPADSGVDTLAVFMASSGTTDVTNRNSPATPPNTLNLRSSHNELLNAEIKHTETKNSTPPKCRKKYALTNIQAAMGLSDPAAQPLLGNGSANIKLVKNGENQLRKAAEQGQQDPNKNLSPTAVINITSEKLEGKEPHPQDSSSCEILPSQPRRTKSFLNYYADLETSARELEQNRGNHHGTAEEKSQPVQGQASTIIGNGDLLLQKPNRPQSSPEDGQVATVSSSPETKKDHPKTGAKTDCALHRIQNLAPSDEESSWTTLSQDSASPSSPDETDIWSDHSFQTDPDLPPGWKRVSDIAGTYYWHIPTGTTQWERPVSIPADLQGSRKGSLSSVTPSPTPENEKQPWSDFAVLNGGKINSDIWKDLHAATVNPDPSLKEFEGATLRYASLKLRNAPHPDDDDSCSINSDPEAKCFAVRSLGWVEMAEEDLAPGKSSVAVNNCIRQLSYCKNDIRDTVGIWGEGKDMYLILENDMLSLVDPMDRSVLHSQPIVSIRVWGVGRDNGRDFAYVARDKDTRILKCHVFRCDTPAKAIATSLHEICSKIMAERKNAKALACSSLQERANVNLDVPLQVDFPTPKTELVQKFHVQYLGMLPVDKPVGMDILNSAIENLMTSSNKEDWLSVNMNVADATVTVISEKNEEEVLVECRVRFLSFMGVGKDVHTFAFIMDTGNQRFECHVFWCEPNAGNVSEAVQAACMLRYQKCLVARPPSQKVRPPPPPADSVTRRVTTNVKRGVLSLIDTLKQKRPVTEMP

Biological target: T1, EGFR-Wt (Homo sapiens, UniProt P00533)
T1 construct: with the advantage of testing full-length integral membrane proteins; (GGGGS)2 linker-Cub (human ubiquitin aa 35-76)-GAL4(1-147)-mNFkB(364-550) (C); expressed in transfected cells
Test: MaMTH EGFR-interactor screen, lentiviral preys against EGFR-wildtype bait (interaction score)
Format: cell-based
Conditions: MaMTH interaction score of prey with EGFR-Wt bait, mean
Procedure: (§1) After lentivirus harvest, target cells (stable 5×GAL4UAS-luciferase reporter-HEK293T cells) were infected at a multiplicity of infection (MOI) of around 0.3-0.4 to ensure single copy integration per cell. Cells were selected in puromycin for at least 48 h and transfected with either EGFR-wildtype or EGFR-L858R baits in triplicates. 24 h after transfection, cells were lysed and luciferase assays performed. On each set of interaction assays, various negative controls were included. To calculate a MaMTH-interaction scores, negative controls were averaged and the fold-change of luciferase activity compared to the averaged controls was calculated and defined as the interaction score.
(§2) Each set of experiments contains a defined set of negative controls in at least three replicates. Negative controls were chosen as such that there is a range of controls showing high-background luciferase activity (normally cytosolic proteins: Fabp5, Pex19) as well as medium-background luciferase activity (membrane-bound interactors: Pex7, GABBR2). Negative controls were averaged and the fold-change of luciferase activity was calculated. Using this method, we have a stringent cut-off and chose an interaction score >1 to be interacting proteins.
(§3) Our cut-off of 1 is based on fold-change difference in luciferase activity over averaged negative controls. Negative controls include cytosolic preys (which tend to promiscuously bind to many proteins), plasma membrane- and peroxisomal-prey proteins. In general, we chose stringent conditions by testing preys that tend to have high luciferase background with any bait tested, in order to generate high-confidence interaction data. […] Phosphorylated tyrosine residues on the receptor are typically docking sites for downstream cytoplasmic targets and recognized through SH2 or PTB domains^43.

Molecule	EGFR-Wt mean
B1	2.14
B2	3.12
B3	5.84
B4	7.16
B5	4.63
B6	16.92
B7	3.05

Test system: EGFR-Wt
Test: as above
Format: cell-based, human
Conditions: ratio of EGFR-Wt mean to EGFR-L858R mean interaction score
Procedure: as §1, §2, §3

Molecule	Wt/L858R
B1	0.94
B2	0.96
B3	0.98
B4	1.00
B5	1.04
B6	1.04
B7	1.05

Biological target: T2, EGFR-L858R (Homo sapiens, UniProt P00533, L858R)
T2 construct: with the advantage of testing full-length integral membrane proteins; (GGGGS)2 linker-Cub (human ubiquitin aa 35-76)-GAL4(1-147)-mNFkB(364-550) (C); expressed in transfected cells
Test: MaMTH EGFR-interactor screen, lentiviral preys against EGFR-L858R bait (interaction score)
Format: cell-based
Conditions: MaMTH interaction score of prey with EGFR-L858R bait
Procedure: as §1, §2, §3

Molecule	EGFR-L858R mean
B1	2.27
B2	3.26
B3	5.95
B4	7.17
B5	4.47
B6	16.20
B7	2.92
